Measured values as given in article PMC6141588, “Electron microscopy of Chaetomium pom152 shows the assembly of ten-bead string” (Cell Discovery, 2018).

Target: the molecule itself
Assay: cryo-EM micrographs of single particles; purified Ctpom152^FL, much of the detergent removed before rapid freezing; longer strings in up to an estimated 10% of over 2000 images

B1: full-length pom152 of Chaetomium thermophilum (Ctpom152^FL) (natural protein, UniProt G0SB44 1-1270, looked up)
chain: MSDAPAVGAFPQTPVAARRGPARPSDSTTSTTIKRTSPLPLAPQAGRQATNISPVIPLHILDAPTQRFYAFAFYLALTAWKLYDWTQVLEEDTESFLLFLKWIAIDCVFLFGLPELRIPWLELSQPFVMVAFAIHAMFDWILMFNIGFPWQSWVIGLLKVFYDREIAISEHNVKLSSILQNSSLIMGRQIINILPEGSAILNPELQPFCLGGDRKTANIPIFFNSTIPVEVELIRTDFETGQQESIKLSKSQLRDIERRAKRESQDGDTVQSIVQFDFPVKKTGAYRLGRVLDEYKLEVQRRNPLTFVVSCPKAWVGPALSAHRCVGDLSDLSMMVEGTPPLKIKYSRMINGKDHSFHFQSLQPEGFVSPLSGLRSNNWGYDEDDISWARAQKVPVGLNESMHSSGDWQYSIDEVQDGFGNIIKYDSLADDPDGKPKPKHLTQSFVVKKRPVIRLEGCDLRHPLKVAKGKSKNLPVSYGLSGGSREDSTYQIAWQFSPIDTLTESGDHGDVVTIGTYTAKNNRDRPTISAPGLYTLKSVSASQCEGEIQEPSSCLLLNPLEPRLSLRHEEIPDTCAGNSIGLRVDLDLIGTPPFIVRYDVISNGERRSERVSIPGLRYQLDLVPRIAGHHKYIFTHVGDSIYDGQKLSGPEYVLEQDVKPAAAALIQHSTGKMSSCLGDQVTVDILLLGDPPFTLEWELIHDGKRKQFKVPNIQENSYQIKTAPLTTGGEYTLGLTSVQDKRGCRNFLQEELKISVRRQSPRAAFGQVDGKRKILAVEGSSVKLPLRLTGEGPWKVYYANLHDGSPDKPKVQEKIIKSDNGFLEVRGRGAFAITDVWDSQCHGVVDPKASRFDVDWFPRPELSVALTHGVSKTETGFQLQDVCEGDVSGFEVALKGTPPFTVEYEVRHHPLQGSSSLSKKKIEGVVGKEAIQADTSKAGTYTYKFTALEDDLYSSNRGFQPIIVKQNVNRKPTASFVKPGQTFKYCKSEQDNEDGIPITLTGVPPFFLEVEIKHQSAAVPEIYRTPAIDSHSYELKIPRHHLRLGTQHIRIRDIRDGSGCHSTSGILSGPSVQVQLFEAPTIYPLETRTDYCVGERISYTLSGQAPFEVWYTFNGVELKAKSPNTNFRRIAESPGEFTITSVSDKASECRAPVSITKTIHPLPAVRISKGKSVRVDIHEGGEVDILFEFFGTPPFEFTYTRSTNARKGQKSQVLETRHDISHEHSKVIKASQEGTYEVVAIKDKYCSFSTQAVVGLEGGKKDKTKKLKVY
notes: also called FL Ctpom152; full-length Ctpom152; source: insect cells, purified with detergent extract; much of the detergent removed before cryo-EM
Q: Does B1 bind?
A: binds
